Test results published in patent publication EP4566632A1 (Nona Biosciences (Suzhou) Co., Ltd., dated 2024).
Substitutions are numbered along the chain they refer to. Names and notes keep the numbering of the source.

T1: cynomolgus monkey MSLN protein (Harbour BioMed, Batch #: 2019072202) (cynomolgus monkey)
T1 construct: also called recombinant cynomolgus monkey MSLN ECD His-tag protein
T1 chain: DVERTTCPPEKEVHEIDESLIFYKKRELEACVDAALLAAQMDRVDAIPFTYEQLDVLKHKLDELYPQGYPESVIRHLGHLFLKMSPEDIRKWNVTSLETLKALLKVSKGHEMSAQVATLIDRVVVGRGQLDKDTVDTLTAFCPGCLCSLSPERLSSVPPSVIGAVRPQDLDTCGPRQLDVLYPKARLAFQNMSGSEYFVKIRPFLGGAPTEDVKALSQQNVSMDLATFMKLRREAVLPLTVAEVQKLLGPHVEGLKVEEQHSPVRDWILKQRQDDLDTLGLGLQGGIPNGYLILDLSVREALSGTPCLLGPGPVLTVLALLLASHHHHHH

B1: PR300186 (antibody, human IgG1, kappa, V domains shown)
VH: QVQLQESGPGLVKPSETLSLTCTVSGGSINNYYWSWVRQPPGKGLEWIGYIFYSGSTNSNPSLKSRVIISVDTSKNQFSLKLSSVTAADTAVYYCAREVGRIAVAGWFFDLWGRGTLVTVSS
VL: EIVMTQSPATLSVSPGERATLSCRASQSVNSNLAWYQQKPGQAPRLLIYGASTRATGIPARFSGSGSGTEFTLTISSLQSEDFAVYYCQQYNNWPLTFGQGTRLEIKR
notes: Initial antibody from Harbour H2L2 transgenic mice; also called anti-MSLN antibody PR300186
B2: PR300186-2 (antibody, human IgG1, kappa, V domains shown)
VH: B1 VH with N30Q
VL: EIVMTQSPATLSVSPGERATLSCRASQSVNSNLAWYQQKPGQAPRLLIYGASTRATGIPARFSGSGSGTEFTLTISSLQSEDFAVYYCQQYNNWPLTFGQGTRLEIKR
notes: PTM variant of PR300186: Heavy chain N30Q
B3: PR300186-3 (antibody, human IgG1, kappa, V domains shown)
VH: B1 VH with N30Q, N58Q
VL: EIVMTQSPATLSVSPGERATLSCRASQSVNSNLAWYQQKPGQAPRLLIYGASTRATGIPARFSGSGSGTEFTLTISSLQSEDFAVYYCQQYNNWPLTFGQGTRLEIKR
notes: PTM variant of PR300186: Heavy chain N30Q and N58Q
B4: PR300186-7 (antibody, human IgG1, kappa, V domains shown)
VH: B1 VH with N30Q
VL: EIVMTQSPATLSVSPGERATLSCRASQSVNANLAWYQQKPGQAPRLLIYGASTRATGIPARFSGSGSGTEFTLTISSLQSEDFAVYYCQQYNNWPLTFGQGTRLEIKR
notes: PTM variant of PR300186: Heavy chain N30Q, Light chain S31A
B5: PR300186-6 (antibody, human IgG1, kappa, V domains shown)
VH: B1 VH with N30Q, S59A
VL: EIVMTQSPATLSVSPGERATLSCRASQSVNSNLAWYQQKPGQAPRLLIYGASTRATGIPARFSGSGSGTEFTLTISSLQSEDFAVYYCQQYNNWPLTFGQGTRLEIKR
notes: PTM variant of PR300186: Heavy chain N30Q and S59A
B6: PR300186-5 (antibody, human IgG1, kappa, V domains shown)
VH: B1 VH
VL: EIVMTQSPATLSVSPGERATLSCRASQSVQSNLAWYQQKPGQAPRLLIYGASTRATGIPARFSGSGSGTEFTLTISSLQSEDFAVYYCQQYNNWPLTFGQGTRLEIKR
notes: PTM variant of PR300186: Light chain N30Q
B7: PR300186-8 (antibody, human IgG1, kappa, V domains shown)
VH: B1 VH with N30Q, S59A
VL: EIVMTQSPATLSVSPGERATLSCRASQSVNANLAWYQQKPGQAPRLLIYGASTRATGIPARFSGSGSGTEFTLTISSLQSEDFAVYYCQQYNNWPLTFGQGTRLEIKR
notes: PTM variant of PR300186: Heavy chain N30Q and S59A, Light chain S31A
B8: PR300186-9 (antibody, human IgG1, kappa, V domains shown)
VH: B1 VH
VL: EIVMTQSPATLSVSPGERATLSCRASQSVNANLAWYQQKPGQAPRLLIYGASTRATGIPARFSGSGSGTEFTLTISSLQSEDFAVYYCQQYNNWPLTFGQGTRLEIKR
notes: PTM variant of PR300186: Light chain S31A
B9: PR300186-4 (antibody, human IgG1, kappa, V domains shown)
VH: B1 VH with N30Q, N58Q
VL: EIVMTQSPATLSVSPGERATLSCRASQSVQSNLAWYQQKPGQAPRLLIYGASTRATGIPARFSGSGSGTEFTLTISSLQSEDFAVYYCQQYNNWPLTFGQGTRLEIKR
notes: PTM variant of PR300186: Heavy chain N30Q and N58Q, Light chain N30Q
B10: PR300186-10 (antibody, human IgG1, kappa, V domains shown)
VH: B1 VH with N30Q, N58Q
VL: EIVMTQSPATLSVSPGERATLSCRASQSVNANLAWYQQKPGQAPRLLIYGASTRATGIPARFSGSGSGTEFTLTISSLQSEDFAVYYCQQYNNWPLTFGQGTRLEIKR
notes: PTM variant of PR300186: Heavy chain N30Q and N58Q, Light chain S31A

Key:
[1] = target: T2, Human MSLN (Acro Biosystems, Cat #: MSN-H5223) (human, UniProt Q13421 296-580, limits assumed); test: ELISA, human MSLN protein coated on plate
T2 construct: extracellular domain; Bought protein; also called human MSLN protein; recombinant human MSLN ECD His-tag protein; not shown: His tag

[2] = target: T1, cynomolgus monkey MSLN protein (Harbour …); test: ELISA, cynomolgus monkey MSLN protein coated on plate

T2 sequence (Q13421 other isoform, or with tags, fused parts or gaps limits assumed): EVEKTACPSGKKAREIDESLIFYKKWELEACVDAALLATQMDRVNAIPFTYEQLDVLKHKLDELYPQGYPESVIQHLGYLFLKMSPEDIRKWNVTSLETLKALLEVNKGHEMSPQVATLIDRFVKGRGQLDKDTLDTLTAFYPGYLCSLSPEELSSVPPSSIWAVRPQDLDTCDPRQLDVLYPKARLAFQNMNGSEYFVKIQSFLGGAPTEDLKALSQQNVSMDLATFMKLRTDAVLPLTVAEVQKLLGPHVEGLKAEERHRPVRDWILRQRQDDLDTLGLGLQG

Row | EC50 [1] [nM] | Span [1] | EC50 [2] [nM] | Span [2] | Binder
1 | 0.12 | 3.42 | 0.05 | 2.33 | B1
2 | 0.14 | 3.36 | 0.05 | 2.43 | B2
3 | 0.1 | 3.25 | 0.05 | 2.36 | B3
4 | 0.14 | 3.85 | 0.04 | 2.24 | B4
5 | 0.21 | 3.66 | 0.07 | 2.67 | B5
6 | 0.22 | 3.61 | 0.07 | 2.7 | B6
7 | 0.13 | 3.87 | 0.04 | 2.18 | B7
8 | 0.11 | 3.85 | 0.05 | 2.19 | B8
9 | 0.18 | 3.47 | 0.07 | 2.53 | B9
10 | 0.1 | 3.71 | 0.04 | 2.19 | B10
